Residue numbers refer to the chain shown, from its start. Names may count otherwise.
B1: S431A/T432A KaiC mutant (KaiC-AA) (enzyme)
chain: MTSAEMTSPNNNSEHQAIAKMRTMIEGFDDISHGGLPIGRSTLVSGTSGTGKTLFSIQFLYNGIIEFDEPGVFVTFEETPQDIIKNARSFGWDLAKLVDEGKLFILDASPDPEGQEVVGGFDLSALIERINYAIQKYRARRVSIDSVTSVFQQYDASSVVRRELFRLVARLKQIGATTVMTTERIEEYGPIARYGVEEFVSDNVVILRNVLEGERRRRTLEILKLRGTSHMKGEYPFTITDHGINIFPLGAMRLTQRSSNVRVSSGVVRLDEMCGGGFFKDSIILATGATGTGKTLLVSRFVENACANKERAILFAYEESRAQLLRNAYSWGMDFEEMERQNLLKIVCAYPESAGLEDHLQIIKSEINDFKPARIAIDSLSALARGVSNNAFRQFVIGVTGYAKQEEITGLFTNTSDQFMGAHSITDSHIAAITDTIILLQYVEIRGEMSRAINVFKMRGSWHDKAIREFMISDKGPDIKDSFRNFERIISGSPTRITVDEKSELSRIVRGVQEKGPES
B2: KaiA (natural protein)
chain: MLSQIAICIWVESTAILQDCQRALSADRYQLQVCESGEMLLEYAQTHRDQIDCLILVAANPSFRAVVQQLCFEGVVVPAIVVGDRDSEDPDEPAKEQLYHSAELHLGIHQLEQLPYQVDAALAEFLRLAPVETMADHIMLMGANHDPELSSQQRDLAQRLQERLGYLGVYYKRDPDRFLRNLPAYESQKLHQAMQTSYREIVLSYFSPNSNLNQSIDNFVNMAFFADVPVTKVVEIHMELMDEFAKKLRVEGRSEDILLDYRLTLIDVIAHLCEMYRRSIPRET
B3: KaiB (natural protein)
chain: MSPRKTYILKLYVAGNTPNSVRALKTLKNILEVEFQGVYALKVIDVLKNPQLAEEDKILATPTLAKVLPLPVRRIIGDLSDREKVLIGLDLLYGELQDSDDF

Experiments:
crystal structure = target: the molecule itself; assay: crystal structure
[1] = target: T1, KaiB–KaiC^Δ505-ST complex (preformed) ( | Synechococcus elongatus …, UniProt Q79PF5;Q79PF4); assay: SEC-MALS
T1 sequence 1: B3 chain
T1 sequence 2: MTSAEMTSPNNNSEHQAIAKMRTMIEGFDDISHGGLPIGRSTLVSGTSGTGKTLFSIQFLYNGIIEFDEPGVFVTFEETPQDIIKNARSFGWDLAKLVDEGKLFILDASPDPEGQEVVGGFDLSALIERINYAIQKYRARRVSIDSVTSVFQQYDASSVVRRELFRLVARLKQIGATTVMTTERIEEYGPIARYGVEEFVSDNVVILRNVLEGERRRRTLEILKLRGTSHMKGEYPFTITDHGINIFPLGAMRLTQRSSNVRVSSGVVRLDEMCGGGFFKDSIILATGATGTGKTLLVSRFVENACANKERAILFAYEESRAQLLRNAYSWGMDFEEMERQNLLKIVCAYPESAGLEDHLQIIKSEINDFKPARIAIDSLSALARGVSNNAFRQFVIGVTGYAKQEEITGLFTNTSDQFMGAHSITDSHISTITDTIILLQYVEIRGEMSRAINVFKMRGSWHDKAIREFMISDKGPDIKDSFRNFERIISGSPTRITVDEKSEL

[2] = target: T2, KaiB–KaiC-ST complex (preformed for 48 h) ( | Synechococcus elongatus …, UniProt Q79PF5;Q79PF4); assay: SEC-MALS
T2 sequence 1: B3 chain
T2 sequence 2: B1 chain with A431S, A432T

KaiA = target: B2; assay: SEC-MALS
KaiC^E357Q-AA = target: T3, KaiC^E357Q-AA (Synechococcus elongatus PCC 7942, UniProt Q79PF4 1-519, E357Q | S431A | T432A); assay: native gel or EMSA
T3 sequence: B1 chain with E357Q

## B1
Crystal structure
  stoichiometry N: 6

## B2
[1]
  binding result: binds
[2]
  binding result: binds

## B3
KaiA
  binding result: binds
KaiC^E357Q-AA
  binding result: binds

— PMC9171630 (Proceedings of the National Academy of Sciences of the …, 2022)
